Measurements: publication PMC12588321, “Congenital heart disease missense mutations in the TBX5 DNA-binding domain alter thermal stability and DNA-binding affinity”

Legend:
Assay in all cases: EMSA; EMSA: 50 mM NaCl, 10 mM Tris-HCl pH 8.0, 10% glycerol; protein 0-2000 nM; 30 min at 30 °C then 30 min at room temperature; 6% native PAGE in 0.5x TBE; 3 replicates
Conditions in all cases: protein: recombinant; tags: N-terminal Strep-Tag II, C-terminal 10xHis; label: IRDye 700
TBX5 T-box domain M74V = molecular target: T1, TBX5 T-box domain M74V (human? (UniProt Q99593 used for …, UniProt Q99593 48-248, M74V))
T1 sequence: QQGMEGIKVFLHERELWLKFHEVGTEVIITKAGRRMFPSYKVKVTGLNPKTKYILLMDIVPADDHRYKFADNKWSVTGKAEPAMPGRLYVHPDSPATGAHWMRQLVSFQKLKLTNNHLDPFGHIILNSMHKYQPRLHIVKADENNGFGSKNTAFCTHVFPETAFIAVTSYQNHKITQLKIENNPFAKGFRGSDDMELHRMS

TBX5 T-box domain I101F = molecular target: T2, TBX5 T-box domain I101F (human? (UniProt Q99593 used for …, UniProt Q99593 48-248, I101F))
T2 sequence: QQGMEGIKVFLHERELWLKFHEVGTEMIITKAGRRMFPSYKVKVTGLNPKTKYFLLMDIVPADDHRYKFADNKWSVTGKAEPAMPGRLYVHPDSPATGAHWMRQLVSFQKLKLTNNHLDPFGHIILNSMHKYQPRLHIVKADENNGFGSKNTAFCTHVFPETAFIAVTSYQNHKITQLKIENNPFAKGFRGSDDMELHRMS

TBX5 T-box domain R237W = molecular target: T3, TBX5 T-box domain R237W (human? (UniProt Q99593 used for …, UniProt Q99593 48-248, R237W))
T3 sequence: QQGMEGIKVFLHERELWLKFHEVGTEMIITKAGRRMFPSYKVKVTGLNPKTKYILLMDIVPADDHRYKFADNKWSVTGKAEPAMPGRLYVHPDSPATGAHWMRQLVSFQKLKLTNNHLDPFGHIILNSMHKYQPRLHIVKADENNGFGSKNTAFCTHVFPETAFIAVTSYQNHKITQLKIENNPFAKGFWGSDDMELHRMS

TBX5 T-box domain I54T = molecular target: T4, TBX5 T-box domain I54T (human? (UniProt Q99593 used for …, UniProt Q99593 48-248, I54T))
T4 sequence: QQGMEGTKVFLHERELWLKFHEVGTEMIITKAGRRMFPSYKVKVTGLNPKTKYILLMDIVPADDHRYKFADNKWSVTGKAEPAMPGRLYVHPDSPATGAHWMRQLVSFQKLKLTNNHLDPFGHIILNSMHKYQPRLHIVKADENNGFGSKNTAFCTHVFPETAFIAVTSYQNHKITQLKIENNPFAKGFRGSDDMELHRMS

TBX5 T-box domain R113K = molecular target: T5, TBX5 T-box domain R113K (human? (UniProt Q99593 used for …, UniProt Q99593 48-248, R113K))
T5 sequence: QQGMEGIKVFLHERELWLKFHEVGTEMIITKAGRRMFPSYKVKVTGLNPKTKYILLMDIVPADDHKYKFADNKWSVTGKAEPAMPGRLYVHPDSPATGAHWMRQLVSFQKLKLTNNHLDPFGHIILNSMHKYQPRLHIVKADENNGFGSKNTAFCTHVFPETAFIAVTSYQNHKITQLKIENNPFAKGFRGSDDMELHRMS

B1: Camta1 promoter probe (dsDNA)
DNA 1: GCAGATCTCCTGCTGGGCTGACACCTCACTATCGCAGAACCGTGCCAATGCCGCCGTAAG
DNA 2: CTTACGGCGGCATTGGCACGGTTCTGCGATAGTGAGGTGTCAGCCCAGCAGGAGATCTGC
For B1, the binding signal (TBX5 T-box domain M74V) was -2.93 fold change in Bmax vs WT, the binding signal (TBX5 T-box domain I101F) was -1.38 fold change in Bmax vs WT and the binding signal (TBX5 T-box domain R237W) was -10.5 fold change in Bmax vs WT. It also gave a binding signal (TBX5 T-box domain I54T) of -1.34 fold change in Bmax vs WT and a binding signal (TBX5 T-box domain R113K) of -1.49 fold change in Bmax vs WT.

B2: Nppa (ANF) promoter probe (dsDNA)
DNA 1: CCCGGTTTTGTGATTCTCTCTCTCACACCTTCAGCAGGAACGTGCCAATGCCGCCGTAAG
DNA 2: CTTACGGCGGCATTGGCACGTTCCTGCTGAAGGTGTGAGAGAGAGAATCACAAAACCGGG
Binder B2 has a binding signal (TBX5 T-box domain M74V) of -3.27 fold change in Bmax vs WT, a binding signal (TBX5 T-box domain I101F) of -1.26 fold change in Bmax vs WT and a binding signal (TBX5 T-box domain R237W) of -3.76 fold change in Bmax vs WT. It also gave a binding signal (TBX5 T-box domain I54T) of -1.65 fold change in Bmax vs WT and a binding signal (TBX5 T-box domain R113K) of -2.87 fold change in Bmax vs WT.
